Assay results taken from the supplement of paper PMC9112550, “Optimization of the antimicrobial peptide Bac7 by deep mutational scanning” (BMC Biology, 2022).

System: Escherichia coli TOP10
Assay: shrunken log2 fold change of peptide-encoding DNA abundance (4.5 h post-induction vs induction); higher = less antimicrobial activity (less host growth inhibition)
Conditions: time post-induction: 4.5 h; library: site-saturation at positions 5, 18, 19, 20
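Further: peptides expressed intracellularly from a pBAD plasmid library in pooled LB shake-flask culture, induced with 0.3% L-arabinose, DNA abundance read by NGS, three biological replicates, DESeq2 with apeglm shrinkage.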

| Sequence | shrunken log2 fold change |
| --- | --- |
| RRIRVRPPRLPRPRPRPIKDPRP | 0.0334 |
| RRIRVRPPRLPRPRPRPIKHPRP | -0.505 |
| RRIRVRPPRLPRPRPRPIKWPRP | -0.161 |
| RRIRVRPPRLPRPRPRPIMCPRP | 0.0128 |
| RRIRVRPPRLPRPRPRPIMMPRP | -0.0138 |
| RRIRVRPPRLPRPRPRPINDPRP | 0.0664 |
| RRIRVRPPRLPRPRPRPIPDPRP | -0.0692 |
| RRIRVRPPRLPRPRPRPIPKPRP | -0.131 |
| RRIRVRPPRLPRPRPRPIQEPRP | -0.169 |
| RRIRVRPPRLPRPRPRPIQTPRP | -0.0164 |
| RRIRVRPPRLPRPRPRPISSPRP | -0.136 |
| RRIRVRPPRLPRPRPRPISVPRP | -0.131 |
| RRIRVRPPRLPRPRPRPITKPRP | 0.0714 |
| RRIRVRPPRLPRPRPRPIVIPRP | 0.0265 |
| RRIRVRPPRLPRPRPRPKALPRP | 0.0497 |
| RRIRVRPPRLPRPRPRPKCFPRP | -0.213 |
| RRIRVRPPRLPRPRPRPKETPRP | 0.0161 |
| RRIRVRPPRLPRPRPRPKGLPRP | -0.239 |
| RRIRVRPPRLPRPRPRPKGNPRP | 0.143 |
| RRIRVRPPRLPRPRPRPKHAPRP | 0.133 |
| RRIRVRPPRLPRPRPRPKHVPRP | -0.101 |
| RRIRVRPPRLPRPRPRPKLAPRP | 0.274 |
| RRIRVRPPRLPRPRPRPKLKPRP | 0.00388 |
| RRIRVRPPRLPRPRPRPKNIPRP | -0.505 |
| RRIRVRPPRLPRPRPRPKNKPRP | -0.169 |

| Sequence | shrunken log2 fold change |
| --- | --- |
| RRIRVRPPRLPRPRPRPKPDPRP | 0.206 |
| RRIRVRPPRLPRPRPRPKPYPRP | 0.0131 |
| RRIRVRPPRLPRPRPRPKQLPRP | 0.0267 |
| RRIRVRPPRLPRPRPRPKRTPRP | 0.0795 |
| RRIRVRPPRLPRPRPRPKWNPRP | -0.172 |
| RRIRVRPPRLPRPRPRPKYIPRP | -0.821 |
| RRIRVRPPRLPRPRPRPKYQPRP | -0.876 |
| RRIRVRPPRLPRPRPRPLAAPRP | 0.152 |
| RRIRVRPPRLPRPRPRPLDAPRP | 0.571 |
| RRIRVRPPRLPRPRPRPLEAPRP | 0.242 |
| RRIRVRPPRLPRPRPRPLEPPRP | 0.236 |
| RRIRVRPPRLPRPRPRPLFIPRP | 0.101 |
| RRIRVRPPRLPRPRPRPLHKPRP | -0.192 |
| RRIRVRPPRLPRPRPRPLIEPRP | 0.103 |
| RRIRVRPPRLPRPRPRPLIRPRP | -0.352 |
| RRIRVRPPRLPRPRPRPLKGPRP | -0.211 |
| RRIRVRPPRLPRPRPRPLLPPRP | 0.328 |
| RRIRVRPPRLPRPRPRPLLSPRP | -0.08 |
| RRIRVRPPRLPRPRPRPLMNPRP | -0.649 |
| RRIRVRPPRLPRPRPRPLMQPRP | -0.0132 |
| RRIRVRPPRLPRPRPRPLPKPRP | 0.361 |
| RRIRVRPPRLPRPRPRPLQAPRP | 0.432 |
| RRIRVRPPRLPRPRPRPLQDPRP | -0.104 |
| RRIRVRPPRLPRPRPRPLRCPRP | 0.0372 |
| RRIRVRPPRLPRPRPRPLSGPRP | 0.179 |

| Sequence | shrunken log2 fold change |
| --- | --- |
| RRIRVRPPRLPRPRPRPLSKPRP | -0.303 |
| RRIRVRPPRLPRPRPRPLTDPRP | 0.0682 |
| RRIRVRPPRLPRPRPRPLTEPRP | -0.503 |
| RRIRVRPPRLPRPRPRPLVIPRP | -0.429 |
| RRIRVRPPRLPRPRPRPLVNPRP | -0.244 |
| RRIRVRPPRLPRPRPRPLWRPRP | 0.293 |
| RRIRVRPPRLPRPRPRPLYNPRP | -0.56 |
| RRIRVRPPRLPRPRPRPMCCPRP | -0.0676 |
| RRIRVRPPRLPRPRPRPMCGPRP | 0.0281 |
| RRIRVRPPRLPRPRPRPMDCPRP | -0.0385 |
| RRIRVRPPRLPRPRPRPMFNPRP | -0.4 |
| RRIRVRPPRLPRPRPRPMFSPRP | -0.284 |
| RRIRVRPPRLPRPRPRPMHKPRP | -0.192 |
| RRIRVRPPRLPRPRPRPMKCPRP | -0.00104 |
| RRIRVRPPRLPRPRPRPMKPPRP | -0.0376 |
| RRIRVRPPRLPRPRPRPMKWPRP | -0.068 |
| RRIRVRPPRLPRPRPRPMLRPRP | -0.102 |
| RRIRVRPPRLPRPRPRPMMAPRP | -0.12 |
| RRIRVRPPRLPRPRPRPMMKPRP | 0.168 |
| RRIRVRPPRLPRPRPRPMMTPRP | 0.0496 |
| RRIRVRPPRLPRPRPRPMNYPRP | -0.128 |
| RRIRVRPPRLPRPRPRPMQCPRP | 0.0658 |
| RRIRVRPPRLPRPRPRPMQDPRP | 0.0217 |
| RRIRVRPPRLPRPRPRPMRYPRP | 0.453 |
| RRIRVRPPRLPRPRPRPMSCPRP | 0.0534 |
